The values that follow come from patent publication US20250027068.

Positions count from the first letter of the chain named.

Sequences and labels used below:
B1: PRT-252 (protein)
chain: MVTSVWTKGVTPPTNFTYGEDVLHAPYVANQGWYDITKLFNGKDDLLCGAATAGNMLHWWFDQNKEQIENYLKKHPEKQKINFNGEQMFDVKEAIDTKDSQLDSKLFEYFLEKAFPNLSTKHLGVFPDHVIDMFINGYRLSLLNHGPTPVKRGSKDPRGGIFDAVFTRGDQSKLLTNRHDFKEKTLKEISDLIKQELTEGKALGISHTYANGRINHVINLWGADFDAEGNLEAIAVTDSDSNASIGMKKYFVGVNSSGKVAISAKEIEEDNIGAQVLGLFTLSTGQDIWNQTN
B2: PRT-268 (protein)
chain: B1 chain with N15D, T17I, V28K, N30G, E108D, L111K, F181L, E183N, A235Y, A243P
B3: PRT-316 (protein)
chain: MTITSVWTKGVTPPTPEDFRKNNEDVLHAPYVANQGWYDITKTFDGKDNLLCGAATAGNMLHWWFDQNKEEIERYLKKHPEKQKIIFNNQELFDVKAAIDTKDSQTNSKLFNYFRDKAFPNLSARQLGVMPDLVLDMFINGYYLNLGKTQSTDVNRPYQDKDKRGGIFDAVFTRGDQTTLLTARHDLKNKGLNEISDLIKQELTEGKALALSHTYANVRINHVINLWGADFDAEGNLIAIYVTDSDANASIGMKKYFVGRNANGKVAISAKKIEGDNIGAQVLGLFTLSTGQDIWQKLS
B4: PRT-317 (protein)
chain: B3 chain with K21E, T290L
B5: PRT-332 (protein)
chain: B3 chain with K21E, L92W, N121G, M130F, G147P, D176V, F257A, R260V
B6: PRT-324 (protein)
chain: B3 chain with K21E, N88G, A249P
B7: PRT-292 (protein)
chain: MVTSVWTKGVTPPADFTQGEDVFHAPYDANQGWYDITKTFNGKDDLLCGAATAGNMLHWWFDQNKEYIEAYLKKHPEKQKIMFGDQELLDVRKAINTKGSQKNSELFNYFRDKAFPNLSARRLGVMPDLVLDMFINGYYLNVTKTQTTDVNRTYQEKDKRGGIFDAVFTRGDQSKLLTSRHDFKEKGLKEISDLIKQELTEGKALGLSHTYANVRISHVINLWGADFDSDGNLKAIYVTDSDSNASIGMKKYFVGVNSAGKVAISAKEIKEDNIGAQVLGLFTLSTGQDIWNQTN
B8: PRT-300 (protein)
chain: B7 chain with A14T, T17I, Q18K, D28K, N30G, I216L, S217N, A259S
B9: PRT-293 (protein)
chain: B7 chain with D28V, I216L, S217N, F253G
B10: PRT-301 (protein)
chain: B7 chain with A14T, T17I, Q18K, N30G
B11: PRT-284 (protein)
chain: MVTSVWTKGVTPPAKFTQGEDVFHAPYVANQGWYDITKTFNGKDDLLCGAATAGNMLHWWFDQNKEKIEAYLKKHPDKQKIMFGDQELLDVRKVINTKGDQTNSELFNYFRDKAFPNLSARRIGVMPDLVLDMFINGYYLNVYKTQTTDVNRTYQEKDRRGGIFDAVFTRGDQSKLLTSRHDFKEKNLKEISDLIKKELTEGKALGLSHTYANVRLNHVINLWGADFDSNGNLKAIYVTDSDSNASIGMKKYGVGVNSAGKVAISAKEIKEDNIGAQVLGLFTLSTGQDSWNQTN
B12: PRT-260 (protein)
chain: MVTSVWTKGVTPPTNFTYGEDVLHAPYVANQGWYDITKTFNGKDNLLCGAATAGNMLHWWFDQNKEQIENYLKKHPEKQKINFNGEQLFDVKEAIDTKDSQLDSKLFDYFKEKAFPNLSTKHLGVFPDHVIDMFINGYRLSLLNHGPTPVKRGSKDKRGGIFDAVFTRGVQSKLLTNRHDFKEKTLKEISDLIKQELTEGKALGISHTYANVRINHVINLWGADFDAEGNLEAIYVTDSDTNPSIGMKKYFVGVNSSGKVAISAKEIEEDNIGAQVLGLFTLSTGQDIWNQTN
B13: PRT-276 (protein)
chain: MVTSVWTKGVTPPTDFIYGEDVLHAPYKAGQGWYDITKTFNGKDNLLCGAATAGNMLHWWFDQNKEQIENYLKKHPEKQKIIFNNQELFDLKAAIDTKDSQLDSKLFEYFLEKAFPNLSTKHLGVFPDHVIDMFINGYRLSLLNHGPTPVKRGSKDKRGGIFDAVFTRGVQSKLLTNRHDLKNKTLKEISDLIKQELTEGKALGISHTYANVRINHVINLWGADFDAEGNLEAIAVTDSDTNASIGMKKYFVGVNSSGKVAISAKEIEEDNIGAQVLGLFTLSTGQDIWNQTN
B14: PRT-308 (protein)
chain: MQITSVWTKGVTPLTPEQFRENNEDVIHAPYLAHQGWYDITKAFDGKDNLLCGAATAGNMLHWWFDQNKTEIEAYLSKHPEKQKIIFNNQELFDLKAAIDTKDSQTNSQLFNYFRDKAFPNLSARQLGVMPDLVLDMFINGYYLNVGKTQSTDVNRPYQDKDKRGGIFDAVFTRGDQTTLLTARHDLKNKGLNDISTIIKQELTEGRALALSHTYANVSISHVINLWGADFDAEGNLEAIYVTDSDANASIGMKKYFVGRNAHGHVAISAKKIEGENIGAQVLGLFTLSLGKDIWQKLS
B15: PRT-309 (protein)
chain: B14 chain with N88G, N112D, L290S, I294Q
B16: PRT-244 (protein)
chain: MVTSVWTKGVTPPANFTQGEDVFHAPYVANQGWYDITKTFNGKDDLLCGAATAGNMLHWWFDQNKDQIKRYLEEHPEKQKINFNGEQMFDVKEAIDTKNHQLDSKLFEYFLEKAFPNLSTKHLGVFPDHVIDMFINGYRLSLLNHGPTPVKEGSKDPRGGIFDAVFTRGDQSKLLTSRHDFKEKNLKEISDLIKKELTEGKALGLSHTYANVRINHVINLWGADFDSNGNLKAIAVTDSDSNASIGMKKYFVGVNSSGKVAISAKEIKEDNIGAQVLGLFTLSTGQDSWNQTN

The target of this data set is pooled human IgG (human IgG1,2,3 and 4).
With B1, the Enzyme Activity Endpoint Assay: Fab′2 was determined as 634 ng/µL, the Enzyme Activity Endpoint Assay: Fc came out at 365 ng/µL, the Enzyme Activity Endpoint Assay: IgG was 56 ng/µL and the Enzyme Activity Endpoint Assay: scIgG was determined as 0 ng/µL.

Take B2: the Enzyme Activity Endpoint Assay: Fab′2 stood at 429 ng/µL, the Enzyme Activity Endpoint Assay: Fc was 325 ng/µL, the Enzyme Activity Endpoint Assay: IgG stood at 90 ng/µL and the Enzyme Activity Endpoint Assay: scIgG is 282 ng/µL.

B3 had an Enzyme Activity Endpoint Assay: Fab′2 of 772 ng/µL, an Enzyme Activity Endpoint Assay: Fc of 347 ng/µL, an Enzyme Activity Endpoint Assay: IgG of 80 ng/µL and an Enzyme Activity Endpoint Assay: scIgG of 0 ng/µL.

Regarding B4, the Enzyme Activity Endpoint Assay: Fab′2 stood at 798 ng/µL, the Enzyme Activity Endpoint Assay: Fc came out at 453 ng/µL, the Enzyme Activity Endpoint Assay: IgG was 0 ng/µL and the Enzyme Activity Endpoint Assay: scIgG came out at 0 ng/µL.

On to B5, for which the Enzyme Activity Endpoint Assay: Fab′2 stood at 409 ng/µL, the Enzyme Activity Endpoint Assay: Fc is 277 ng/µL, the Enzyme Activity Endpoint Assay: IgG is 0 ng/µL and the Enzyme Activity Endpoint Assay: scIgG stood at 177 ng/µL.

In the case of B6, the Enzyme Activity Endpoint Assay: Fab′2 was 665 ng/µL, the Enzyme Activity Endpoint Assay: Fc is 291 ng/µL, the Enzyme Activity Endpoint Assay: IgG was found to be 0 ng/µL and the Enzyme Activity Endpoint Assay: scIgG came out at 0 ng/µL.

As to B7, the Enzyme Activity Endpoint Assay: Fab′2 came to 758 ng/µL, the Enzyme Activity Endpoint Assay: Fc stood at 359 ng/µL, the Enzyme Activity Endpoint Assay: IgG is 0 ng/µL and the Enzyme Activity Endpoint Assay: scIgG stood at 0 ng/µL.

The protein B8 had an Enzyme Activity Endpoint Assay: Fab′2 of 333 ng/µL, an Enzyme Activity Endpoint Assay: Fc of 274 ng/µL, an Enzyme Activity Endpoint Assay: IgG of 276 ng/µL and an Enzyme Activity Endpoint Assay: scIgG of 43 ng/µL.

Protein B9 registered an Enzyme Activity Endpoint Assay: Fab′2 of 11 ng/µL, an Enzyme Activity Endpoint Assay: Fc of 0 ng/µL, an Enzyme Activity Endpoint Assay: IgG of 1260 ng/µL and an Enzyme Activity Endpoint Assay: scIgG of 0 ng/µL.

In the case of B10, the Enzyme Activity Endpoint Assay: Fab′2 came out at 0 ng/µL, the Enzyme Activity Endpoint Assay: Fc amounted to 0 ng/µL, the Enzyme Activity Endpoint Assay: IgG was 1680 ng/µL and the Enzyme Activity Endpoint Assay: scIgG was determined as 0 ng/µL.

With B11, the Enzyme Activity Endpoint Assay: Fab′2 was 72 ng/µL, the Enzyme Activity Endpoint Assay: Fc was 184 ng/µL, the Enzyme Activity Endpoint Assay: IgG was 45 ng/µL and the Enzyme Activity Endpoint Assay: scIgG stood at 483 ng/µL.

Take B12: the Enzyme Activity Endpoint Assay: Fab′2 stood at 793 ng/µL, the Enzyme Activity Endpoint Assay: Fc is 354 ng/µL, the Enzyme Activity Endpoint Assay: IgG was determined as 0 ng/µL and the Enzyme Activity Endpoint Assay: scIgG is 0 ng/µL.

With B13, the Enzyme Activity Endpoint Assay: Fab′2 was found to be 912 ng/µL, the Enzyme Activity Endpoint Assay: Fc was determined as 383 ng/µL, the Enzyme Activity Endpoint Assay: IgG stood at 0 ng/µL and the Enzyme Activity Endpoint Assay: scIgG came out at 0 ng/µL.

Protein B14 showed an Enzyme Activity Endpoint Assay: Fab′2 of 405 ng/µL, an Enzyme Activity Endpoint Assay: Fc of 204 ng/µL, an Enzyme Activity Endpoint Assay: IgG of 59 ng/µL and an Enzyme Activity Endpoint Assay: scIgG of 106 ng/µL.

Take B15: the Enzyme Activity Endpoint Assay: Fab′2 worked out at 0 ng/µL, the Enzyme Activity Endpoint Assay: Fc is 0 ng/µL, the Enzyme Activity Endpoint Assay: IgG came to 1650 ng/µL and the Enzyme Activity Endpoint Assay: scIgG stood at 0 ng/µL.

For B16, the Enzyme Activity Endpoint Assay: Fab′2 amounted to 998 ng/µL, the Enzyme Activity Endpoint Assay: Fc is 429 ng/µL, the Enzyme Activity Endpoint Assay: IgG was found to be 0 ng/µL and the Enzyme Activity Endpoint Assay: scIgG amounted to 0 ng/µL.
